Assay [1] has as its target human recombinant biotinylated FcRn (neonatal Fc receptor) (human) (UniProt P55899). In words: SPR; ProteOn XPR36; biotinylated human FcRn immobilised on an NLC chip, IL-12Fc variants or control antibodies as analytes (0-6075 nM); histidine buffer (20 mM histidine, 150 mM NaCl, 0.05% Tween 20) pH 6.0; KD from binding equilibrium analysis; values of Figure 2B (for WT and NHQ those of the channel labelled 100-115 RU in the sheet of Figure S2C). In general terms: In SPR one partner is held on a chip, and binding of the other changes the refractive index at the surface.

For assay [2] the target is unchanged. The assay can be described thus: SPR; as a1, channel L4, FcRn coating density labelled 75-80 RU; WT 365-4.5 nM, NHQ 3645-45 nM; pH 6.0; equilibrium analysis.
The target is the same in assay [3]. The assay can be described thus: SPR; as a1, channel L5, FcRn coating density labelled 30-35 RU; WT 365-4.5 nM, NHQ 3645-45 nM; pH 6.0; equilibrium analysis.
For assay [4] the target is unchanged. The assay can be described thus: SPR; as a1, channel L1, FcRn coating density labelled 550-600 RU; WT 365-4.5 nM, NHQ 3645-45 nM; pH 6.0; equilibrium analysis.
For assay [5] the target is unchanged. In words: SPR; as a1, channel L2, FcRn coating density labelled 250-260 RU; WT 365-4.5 nM, NHQ 3645-45 nM; pH 6.0; equilibrium analysis.
For assay [6] the target is unchanged.

In paper PMC12098678 one finds Kd, IL-12 level in the ipsilateral brain hemisphere 6 h after CED of 1 ug into the striatum of hFcRn Tg32 mice, compared to the IAQ and AAA variants and WT IL-12Fc and residual brain level of IL-12Fc WT 6 h after CED in hFcRn Tg32 mice given the FcRn inhibitor MST-HN Fc (100 ug i.v.) beforehand data, which are given here for six substances.

Take Control IgG1 (antibody): the Kd in assay [1] was determined as 218 nM.

On to Control IgG4 (antibody), for which, in assay [1], the dissociation constant Kd is 343 nM.

With IL-12Fc WT (IHH) (Fc fusion), the dissociation constant Kd in assay [2] worked out at 186 nM; in assay [3] it was 445 nM; in assay [4] it was 216 nM; in assay [5], 60.1 nM; in assay [1] it was 101 nM.

Consider IL-12Fc WT S228P (Fc fusion), for which the dissociation constant Kd in assay [1] was determined as 182 nM.

Consider “human IL-12Fc NHQ (I253N H435Q), FcRn-silenced IL-12Fc (Fc fusion)”, for which the IL-12 level in the ipsilateral brain hemisphere 6 h after CED of 1 ug into the striatum of hFcRn Tg32 mice, compared to the IAQ and AAA variants and WT IL-12Fc in assay [6] was > 30%.

For “human IL-12Fc WT (IHH), single-chain IL-12 fused to human IgG4 Fc (Fc fusion)”, the residual brain level of IL-12Fc WT 6 h after CED in hFcRn Tg32 mice given the FcRn inhibitor MST-HN Fc (100 ug i.v.) beforehand in assay [6] was > 50%.

In general, Kd refers to the free concentration of one partner at which half of the binding sites on the other are occupied at equilibrium, for simple one-to-one binding.
